Data as given in US20200199241A1 (Chugai, published 2020).
Residue numbers refer to the chain shown, from its start. Names and notes keep the numbering of the source.

T1: human FcγRIIa(H) (human, UniProt P12318 36-217)
T1 construct: also called FcgRIIaH; FcγRIIa type H
T1 sequence: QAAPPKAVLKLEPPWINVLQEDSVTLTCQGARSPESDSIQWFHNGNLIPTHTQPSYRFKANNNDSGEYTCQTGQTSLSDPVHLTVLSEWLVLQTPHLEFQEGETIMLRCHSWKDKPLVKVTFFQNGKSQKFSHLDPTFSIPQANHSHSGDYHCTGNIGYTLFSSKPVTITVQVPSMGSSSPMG

T2: human FcγRIIb (human, UniProt P31994 43-217, limits assumed)
T2 construct: also called FcgRIIb
T2 sequence: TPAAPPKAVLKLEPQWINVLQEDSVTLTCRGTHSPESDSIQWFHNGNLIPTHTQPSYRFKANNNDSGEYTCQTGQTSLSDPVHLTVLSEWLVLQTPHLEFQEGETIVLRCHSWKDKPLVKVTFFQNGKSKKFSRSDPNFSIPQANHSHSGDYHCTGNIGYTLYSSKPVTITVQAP

T3: human FcγRIIa(R) (human, UniProt P12318 36-217)
T3 construct: also called FcgRIIaR; FcγRIIa type R
T3 chain: T1 sequence with H133R

B1: GpH7-B3 variant E269N/GpL16-k0 (antibody, human IgG1)
heavy: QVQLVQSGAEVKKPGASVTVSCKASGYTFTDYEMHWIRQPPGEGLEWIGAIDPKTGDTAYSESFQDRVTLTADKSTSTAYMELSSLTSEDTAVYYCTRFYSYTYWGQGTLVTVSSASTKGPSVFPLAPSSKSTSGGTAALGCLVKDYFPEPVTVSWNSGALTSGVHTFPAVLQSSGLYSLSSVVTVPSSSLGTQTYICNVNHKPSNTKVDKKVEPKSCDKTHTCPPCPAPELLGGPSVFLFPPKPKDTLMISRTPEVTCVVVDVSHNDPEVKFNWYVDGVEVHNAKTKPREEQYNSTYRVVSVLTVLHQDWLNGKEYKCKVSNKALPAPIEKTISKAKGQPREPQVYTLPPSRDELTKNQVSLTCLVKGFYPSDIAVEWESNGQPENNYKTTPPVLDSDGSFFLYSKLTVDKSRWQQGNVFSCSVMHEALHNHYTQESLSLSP
light: DIVMTQSPLSLPVTPGEPASISCQASESLVHSNRNTYLHWYLQKPGQSPQLLIYKVSNRFSGVPDRFSGSGSGTDFTLKISRVEAEDVGVYYCSQNTHVPPTFGQGTKVEIE
notes: copies: 2 + 2
B2: GpH7-B3 variant G237I/GpL16-k0 (antibody, human IgG1)
heavy: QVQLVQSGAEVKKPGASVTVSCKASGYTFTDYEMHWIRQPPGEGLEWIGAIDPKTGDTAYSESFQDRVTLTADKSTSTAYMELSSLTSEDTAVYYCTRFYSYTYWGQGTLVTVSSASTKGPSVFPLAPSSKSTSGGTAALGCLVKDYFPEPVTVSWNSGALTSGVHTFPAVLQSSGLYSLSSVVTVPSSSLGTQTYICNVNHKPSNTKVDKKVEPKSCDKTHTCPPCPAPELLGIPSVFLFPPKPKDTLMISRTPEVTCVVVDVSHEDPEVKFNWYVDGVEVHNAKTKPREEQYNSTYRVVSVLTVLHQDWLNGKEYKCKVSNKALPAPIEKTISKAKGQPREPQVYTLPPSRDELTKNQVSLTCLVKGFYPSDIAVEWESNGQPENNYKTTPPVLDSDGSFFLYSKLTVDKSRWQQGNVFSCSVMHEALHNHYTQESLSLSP
light: B1 light
notes: copies: 2 + 2
B3: GpH7-B3 variant E269Q/GpL16-k0 (antibody, human IgG1)
heavy: not shown
light: B1 light
notes: copies: 2 + 2
B4: GpH7-B3 variant G236F/GpL16-k0 (antibody, human IgG1)
heavy: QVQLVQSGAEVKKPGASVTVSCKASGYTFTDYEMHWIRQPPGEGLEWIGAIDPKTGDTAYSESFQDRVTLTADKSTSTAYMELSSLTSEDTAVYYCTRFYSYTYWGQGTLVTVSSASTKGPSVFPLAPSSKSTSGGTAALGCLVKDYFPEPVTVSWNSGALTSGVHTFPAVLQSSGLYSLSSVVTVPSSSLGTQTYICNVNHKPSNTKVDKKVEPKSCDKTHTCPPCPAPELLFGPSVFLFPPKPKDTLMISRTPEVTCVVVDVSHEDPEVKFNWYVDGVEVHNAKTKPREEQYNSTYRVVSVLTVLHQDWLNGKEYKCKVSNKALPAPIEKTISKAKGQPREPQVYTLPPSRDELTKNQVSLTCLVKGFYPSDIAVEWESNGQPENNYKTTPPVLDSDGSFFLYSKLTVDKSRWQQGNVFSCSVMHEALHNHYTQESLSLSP
light: B1 light
notes: copies: 2 + 2
B5: GpH7-B3 variant G236R/GpL16-k0 (antibody, human IgG1)
heavy: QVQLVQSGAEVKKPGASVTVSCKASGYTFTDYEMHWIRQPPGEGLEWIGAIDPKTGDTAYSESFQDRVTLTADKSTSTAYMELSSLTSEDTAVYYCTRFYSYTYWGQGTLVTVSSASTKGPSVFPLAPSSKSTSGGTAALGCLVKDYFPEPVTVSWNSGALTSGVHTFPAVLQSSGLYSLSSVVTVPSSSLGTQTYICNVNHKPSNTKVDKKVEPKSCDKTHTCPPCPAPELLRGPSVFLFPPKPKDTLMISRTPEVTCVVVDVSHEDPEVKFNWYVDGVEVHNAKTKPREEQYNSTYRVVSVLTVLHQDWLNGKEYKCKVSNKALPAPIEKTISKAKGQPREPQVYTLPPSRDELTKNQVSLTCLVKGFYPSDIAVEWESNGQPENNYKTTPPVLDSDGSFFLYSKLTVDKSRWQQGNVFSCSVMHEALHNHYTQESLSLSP
light: B1 light
notes: copies: 2 + 2
B6: GpH7-B3 variant G237Q/GpL16-k0 (antibody, human IgG1)
heavy: not shown
light: B1 light
notes: copies: 2 + 2
B7: GpH7-B3 variant G236P/GpL16-k0 (antibody, human IgG1)
heavy: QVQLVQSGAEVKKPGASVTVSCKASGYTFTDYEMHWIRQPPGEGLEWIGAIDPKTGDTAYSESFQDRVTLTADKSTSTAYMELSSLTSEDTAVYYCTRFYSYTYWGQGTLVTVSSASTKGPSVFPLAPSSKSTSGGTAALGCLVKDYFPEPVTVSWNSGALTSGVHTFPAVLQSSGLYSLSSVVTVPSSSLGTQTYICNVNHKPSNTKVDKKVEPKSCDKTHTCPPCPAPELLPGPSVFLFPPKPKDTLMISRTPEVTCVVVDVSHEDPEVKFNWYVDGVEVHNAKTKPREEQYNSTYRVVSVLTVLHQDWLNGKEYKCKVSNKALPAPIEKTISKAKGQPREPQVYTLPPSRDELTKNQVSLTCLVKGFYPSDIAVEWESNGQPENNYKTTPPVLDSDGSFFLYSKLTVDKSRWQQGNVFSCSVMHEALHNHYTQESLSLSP
light: B1 light
notes: copies: 2 + 2
B8: GpH7-B3 variant G236L/GpL16-k0 (antibody, human IgG1)
heavy: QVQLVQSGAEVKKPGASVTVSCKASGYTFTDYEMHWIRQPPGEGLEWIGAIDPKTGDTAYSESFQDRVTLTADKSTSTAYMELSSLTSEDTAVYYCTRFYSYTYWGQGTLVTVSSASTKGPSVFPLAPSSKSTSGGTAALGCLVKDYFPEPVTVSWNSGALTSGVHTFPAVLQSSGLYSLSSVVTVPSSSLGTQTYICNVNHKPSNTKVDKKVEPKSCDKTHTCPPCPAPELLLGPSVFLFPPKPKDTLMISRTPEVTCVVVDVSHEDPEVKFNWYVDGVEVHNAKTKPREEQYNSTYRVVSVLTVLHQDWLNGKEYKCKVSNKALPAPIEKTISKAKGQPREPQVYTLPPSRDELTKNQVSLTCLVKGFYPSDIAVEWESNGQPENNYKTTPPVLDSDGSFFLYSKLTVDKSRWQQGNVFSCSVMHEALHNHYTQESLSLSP
light: B1 light
notes: copies: 2 + 2
B9: GpH7-B3 variant E2698/GpL16-k0 (antibody, human IgG1)
heavy: not shown
light: B1 light
notes: read as E269S (misprint of S as 8); copies: 2 + 2
B10: GpH7-B3 variant G237V/GpL16-k0 (antibody, human IgG1)
heavy: not shown
light: B1 light
notes: copies: 2 + 2
B11: GpH7-B3 variant G237H/GpL16-k0 (antibody, human IgG1)
heavy: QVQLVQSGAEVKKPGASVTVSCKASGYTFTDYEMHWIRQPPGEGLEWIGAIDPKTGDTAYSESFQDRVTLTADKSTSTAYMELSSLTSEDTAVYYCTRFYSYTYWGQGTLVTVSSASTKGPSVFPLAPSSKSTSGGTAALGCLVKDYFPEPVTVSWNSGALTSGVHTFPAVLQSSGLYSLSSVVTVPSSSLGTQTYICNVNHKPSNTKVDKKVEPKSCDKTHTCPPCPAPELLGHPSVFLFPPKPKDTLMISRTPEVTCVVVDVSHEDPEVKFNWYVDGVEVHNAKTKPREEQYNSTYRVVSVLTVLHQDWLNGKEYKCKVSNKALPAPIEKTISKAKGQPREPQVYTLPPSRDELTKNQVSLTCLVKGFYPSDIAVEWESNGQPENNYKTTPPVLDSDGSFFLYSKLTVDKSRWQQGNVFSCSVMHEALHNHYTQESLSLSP
light: B1 light
notes: copies: 2 + 2
B12: GpH7-B3 variant G237S/GpL16-k0 (antibody, human IgG1)
heavy: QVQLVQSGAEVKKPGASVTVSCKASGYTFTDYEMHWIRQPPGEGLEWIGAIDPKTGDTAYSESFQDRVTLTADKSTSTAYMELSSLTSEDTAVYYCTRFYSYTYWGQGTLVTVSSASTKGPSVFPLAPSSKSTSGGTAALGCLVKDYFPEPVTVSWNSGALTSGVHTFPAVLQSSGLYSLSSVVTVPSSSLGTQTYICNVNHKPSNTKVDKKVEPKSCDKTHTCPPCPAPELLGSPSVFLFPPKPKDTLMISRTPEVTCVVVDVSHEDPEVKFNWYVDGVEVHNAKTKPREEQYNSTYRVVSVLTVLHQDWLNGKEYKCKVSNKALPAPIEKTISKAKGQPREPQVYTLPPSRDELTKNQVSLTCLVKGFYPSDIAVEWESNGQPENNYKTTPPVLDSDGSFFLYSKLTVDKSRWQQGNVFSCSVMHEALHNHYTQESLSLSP
light: B1 light
notes: copies: 2 + 2
B13: GpH7-B3 variant G237T/GpL16-k0 (antibody, human IgG1)
heavy: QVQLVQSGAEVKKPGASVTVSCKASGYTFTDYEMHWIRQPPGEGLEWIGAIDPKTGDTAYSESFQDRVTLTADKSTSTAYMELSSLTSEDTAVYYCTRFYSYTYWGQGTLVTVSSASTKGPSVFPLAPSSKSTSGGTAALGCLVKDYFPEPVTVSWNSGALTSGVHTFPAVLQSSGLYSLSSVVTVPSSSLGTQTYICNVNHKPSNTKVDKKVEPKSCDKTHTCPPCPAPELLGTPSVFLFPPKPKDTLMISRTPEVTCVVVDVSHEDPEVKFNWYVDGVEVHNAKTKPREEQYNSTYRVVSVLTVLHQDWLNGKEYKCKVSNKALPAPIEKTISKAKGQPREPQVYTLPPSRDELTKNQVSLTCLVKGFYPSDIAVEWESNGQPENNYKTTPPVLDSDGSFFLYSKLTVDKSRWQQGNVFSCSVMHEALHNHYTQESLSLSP
light: B1 light
notes: copies: 2 + 2
B14: GpH7-B3 variant G236Y/GpL16-k0 (antibody, human IgG1)
heavy: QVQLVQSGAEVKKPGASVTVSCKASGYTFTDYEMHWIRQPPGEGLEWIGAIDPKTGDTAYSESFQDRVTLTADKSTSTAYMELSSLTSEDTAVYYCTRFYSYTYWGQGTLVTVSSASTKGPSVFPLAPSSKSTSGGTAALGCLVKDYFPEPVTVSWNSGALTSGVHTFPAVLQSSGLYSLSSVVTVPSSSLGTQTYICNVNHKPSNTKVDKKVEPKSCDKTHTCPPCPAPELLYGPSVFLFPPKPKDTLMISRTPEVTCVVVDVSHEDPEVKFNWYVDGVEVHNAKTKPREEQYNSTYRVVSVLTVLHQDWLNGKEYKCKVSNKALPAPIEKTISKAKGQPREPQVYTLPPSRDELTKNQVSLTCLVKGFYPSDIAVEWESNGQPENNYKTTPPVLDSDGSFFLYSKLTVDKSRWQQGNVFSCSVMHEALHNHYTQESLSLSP
light: B1 light
notes: copies: 2 + 2

biological target: T1, human FcγRIIa(H); assay: SPR (Biacore);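 also: antibody variants captured on sensor chip, Fcγ receptor flowed over at 25 °C, bound receptor normalized to amount of captured antibody, expressed relative to reference antibody set as 100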

| relative binding activity | Binder |
| --- | --- |
| 31 % of GpH7-B3/GpL16-k0 | B1 |
| 6 % of GpH7-B3/GpL16-k0 | B2 |
| 64 % of GpH7-B3/GpL16-k0 | B3 |
| 68 % of GpH7-B3/GpL16-k0 | B4 |
| 3 % of GpH7-B3/GpL16-k0 | B5 |
| 0 % of GpH7-B3/GpL16-k0 | B6 |
| 22 % of GpH7-B3/GpL16-k0 | B7 |
| 23 % of GpH7-B3/GpL16-k0 | B8 |
| 48 % of GpH7-B3/GpL16-k0 | B9 |
| 10 % of GpH7-B3/GpL16-k0 | B10 |
| 1 % of GpH7-B3/GpL16-k0 | B11 |
| 3 % of GpH7-B3/GpL16-k0 | B12 |
| 2 % of GpH7-B3/GpL16-k0 | B13 |
| 86 % of GpH7-B3/GpL16-k0 | B14 |

biological target: T2, human FcγRIIb; assay: SPR (Biacore);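 also: antibody variants captured on sensor chip, Fcγ receptor flowed over at 25 °C, bound receptor normalized to amount of captured antibody, expressed relative to reference antibody set as 100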

| relative binding activity | Binder |
| --- | --- |
| 15 % of GpH7-B3/GpL16-k0 | B1 |
| 29 % of GpH7-B3/GpL16-k0 | B2 |
| 13 % of GpH7-B3/GpL16-k0 | B3 |
| 15 % of GpH7-B3/GpL16-k0 | B4 |
| 0 % of GpH7-B3/GpL16-k0 | B5 |
| 5 % of GpH7-B3/GpL16-k0 | B6 |
| 1 % of GpH7-B3/GpL16-k0 | B7 |
| 4 % of GpH7-B3/GpL16-k0 | B8 |
| 19 % of GpH7-B3/GpL16-k0 | B9 |
| 12 % of GpH7-B3/GpL16-k0 | B10 |
| 11 % of GpH7-B3/GpL16-k0 | B11 |
| 26 % of GpH7-B3/GpL16-k0 | B12 |
| 7 % of GpH7-B3/GpL16-k0 | B13 |
| 16 % of GpH7-B3/GpL16-k0 | B14 |

Biological target: T3, human FcγRIIa(R)
Assay: SPR (Biacore);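 also: antibody variants captured on sensor chip, Fcγ receptor flowed over at 25 °C, bound receptor normalized to amount of captured antibody, expressed relative to reference antibody set as 100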

| relative binding activity | Binder |
| --- | --- |
| 24 % of GpH7-B3/GpL16-k0 | B1 |
| 69 % of GpH7-B3/GpL16-k0 | B2 |
| 24 % of GpH7-B3/GpL16-k0 | B3 |
| 23 % of GpH7-B3/GpL16-k0 | B4 |
| 0 % of GpH7-B3/GpL16-k0 | B5 |
| 15 % of GpH7-B3/GpL16-k0 | B6 |
| 12 % of GpH7-B3/GpL16-k0 | B7 |
| 20 % of GpH7-B3/GpL16-k0 | B8 |
| 33 % of GpH7-B3/GpL16-k0 | B9 |
| 55 % of GpH7-B3/GpL16-k0 | B10 |
| 14 % of GpH7-B3/GpL16-k0 | B11 |
| 45 % of GpH7-B3/GpL16-k0 | B12 |
| 13 % of GpH7-B3/GpL16-k0 | B13 |
| 22 % of GpH7-B3/GpL16-k0 | B14 |

biological target: T4, human FcγRIa (human, UniProt P12314 16-292, limits assumed); assay: SPR (Biacore);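 also: antibody variants captured on sensor chip, Fcγ receptor flowed over at 25 °C, bound receptor normalized to amount of captured antibody, expressed relative to reference antibody set as 100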
T4 construct: also called FcgRIa; FcγRI (CD64)
T4 sequence (P12314 16-292 limits assumed): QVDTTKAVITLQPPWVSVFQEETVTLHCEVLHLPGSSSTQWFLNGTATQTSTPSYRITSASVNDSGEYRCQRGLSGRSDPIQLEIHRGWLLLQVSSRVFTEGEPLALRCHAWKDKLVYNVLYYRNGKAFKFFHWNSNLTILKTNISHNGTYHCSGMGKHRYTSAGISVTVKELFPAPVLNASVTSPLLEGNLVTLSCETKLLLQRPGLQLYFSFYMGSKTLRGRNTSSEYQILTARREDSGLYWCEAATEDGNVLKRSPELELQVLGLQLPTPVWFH

| relative binding activity | Binder |
| --- | --- |
| 90 % of GpH7-B3/GpL16-k0 | B1 |
| 6 % of GpH7-B3/GpL16-k0 | B2 |
| 96 % of GpH7-B3/GpL16-k0 | B3 |
| 81 % of GpH7-B3/GpL16-k0 | B4 |
| 6 % of GpH7-B3/GpL16-k0 | B5 |
| 14 % of GpH7-B3/GpL16-k0 | B6 |
| 2 % of GpH7-B3/GpL16-k0 | B7 |
| 18 % of GpH7-B3/GpL16-k0 | B8 |
| 93 % of GpH7-B3/GpL16-k0 | B9 |
| 8 % of GpH7-B3/GpL16-k0 | B10 |
| 12 % of GpH7-B3/GpL16-k0 | B11 |
| 50 % of GpH7-B3/GpL16-k0 | B12 |
| 27 % of GpH7-B3/GpL16-k0 | B13 |
| 76 % of GpH7-B3/GpL16-k0 | B14 |

biological target: T5, human FcγRIIIa(F) (human, UniProt P08637 17-208, limits assumed); assay: SPR (Biacore)
T5 construct: also called FcgRIIIaF; allotype F158
T5 sequence (P08637 other isoform, or with tags, fused parts or gaps limits assumed): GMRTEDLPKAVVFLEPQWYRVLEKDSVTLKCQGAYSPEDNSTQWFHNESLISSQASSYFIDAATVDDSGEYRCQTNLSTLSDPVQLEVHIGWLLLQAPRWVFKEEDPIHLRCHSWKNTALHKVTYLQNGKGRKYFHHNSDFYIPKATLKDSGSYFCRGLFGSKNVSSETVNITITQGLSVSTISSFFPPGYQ

| relative binding activity | Binder |
| --- | --- |
| 21 % of GpH7-B3/GpL16-k0 | B1 |
| 2 % of GpH7-B3/GpL16-k0 | B2 |
| 38 % of GpH7-B3/GpL16-k0 | B3 |
| 24 % of GpH7-B3/GpL16-k0 | B4 |
| -1 % of GpH7-B3/GpL16-k0 | B5 |
| 0 % of GpH7-B3/GpL16-k0 | B6 |
| 1 % of GpH7-B3/GpL16-k0 | B7 |
| 1 % of GpH7-B3/GpL16-k0 | B8 |
| 29 % of GpH7-B3/GpL16-k0 | B9 |
| 2 % of GpH7-B3/GpL16-k0 | B10 |
| 0 % of GpH7-B3/GpL16-k0 | B11 |
| 1 % of GpH7-B3/GpL16-k0 | B12 |
| 2 % of GpH7-B3/GpL16-k0 | B13 |
| 39 % of GpH7-B3/GpL16-k0 | B14 |
